Biological target: heparan sulfate proteoglycan (HSPG) on HeLa cells
Experiment: cell-based or functional assay

- Alexa488 fluorescence intensity in HeLa cells (confocal microscopy, 1 µM, 6 h): 20%
B1: CT-59 (antibody, part only; not given: TMab4 heavy chain variable domain, V domains shown, part only)
VL: DIQMTQSPSSLSASVGDRVTITCKSSQSLLNSRDGKNYLAWYQQKPGKAPKLLIYWASTRESGVPSRFSGSGSGTDFTLTISSLQPEDFATYFCQQYWYWMYTFGQGTKVEIKR

Reference: patent US20200339681A1
